Assay results: patent US20260258152

Molecular target: activated Factor VIII (FVIIIa) (UniProt P00451)
Sequence of UniProt P00451 (P00451 other isoform, or with tags, fused parts or gaps): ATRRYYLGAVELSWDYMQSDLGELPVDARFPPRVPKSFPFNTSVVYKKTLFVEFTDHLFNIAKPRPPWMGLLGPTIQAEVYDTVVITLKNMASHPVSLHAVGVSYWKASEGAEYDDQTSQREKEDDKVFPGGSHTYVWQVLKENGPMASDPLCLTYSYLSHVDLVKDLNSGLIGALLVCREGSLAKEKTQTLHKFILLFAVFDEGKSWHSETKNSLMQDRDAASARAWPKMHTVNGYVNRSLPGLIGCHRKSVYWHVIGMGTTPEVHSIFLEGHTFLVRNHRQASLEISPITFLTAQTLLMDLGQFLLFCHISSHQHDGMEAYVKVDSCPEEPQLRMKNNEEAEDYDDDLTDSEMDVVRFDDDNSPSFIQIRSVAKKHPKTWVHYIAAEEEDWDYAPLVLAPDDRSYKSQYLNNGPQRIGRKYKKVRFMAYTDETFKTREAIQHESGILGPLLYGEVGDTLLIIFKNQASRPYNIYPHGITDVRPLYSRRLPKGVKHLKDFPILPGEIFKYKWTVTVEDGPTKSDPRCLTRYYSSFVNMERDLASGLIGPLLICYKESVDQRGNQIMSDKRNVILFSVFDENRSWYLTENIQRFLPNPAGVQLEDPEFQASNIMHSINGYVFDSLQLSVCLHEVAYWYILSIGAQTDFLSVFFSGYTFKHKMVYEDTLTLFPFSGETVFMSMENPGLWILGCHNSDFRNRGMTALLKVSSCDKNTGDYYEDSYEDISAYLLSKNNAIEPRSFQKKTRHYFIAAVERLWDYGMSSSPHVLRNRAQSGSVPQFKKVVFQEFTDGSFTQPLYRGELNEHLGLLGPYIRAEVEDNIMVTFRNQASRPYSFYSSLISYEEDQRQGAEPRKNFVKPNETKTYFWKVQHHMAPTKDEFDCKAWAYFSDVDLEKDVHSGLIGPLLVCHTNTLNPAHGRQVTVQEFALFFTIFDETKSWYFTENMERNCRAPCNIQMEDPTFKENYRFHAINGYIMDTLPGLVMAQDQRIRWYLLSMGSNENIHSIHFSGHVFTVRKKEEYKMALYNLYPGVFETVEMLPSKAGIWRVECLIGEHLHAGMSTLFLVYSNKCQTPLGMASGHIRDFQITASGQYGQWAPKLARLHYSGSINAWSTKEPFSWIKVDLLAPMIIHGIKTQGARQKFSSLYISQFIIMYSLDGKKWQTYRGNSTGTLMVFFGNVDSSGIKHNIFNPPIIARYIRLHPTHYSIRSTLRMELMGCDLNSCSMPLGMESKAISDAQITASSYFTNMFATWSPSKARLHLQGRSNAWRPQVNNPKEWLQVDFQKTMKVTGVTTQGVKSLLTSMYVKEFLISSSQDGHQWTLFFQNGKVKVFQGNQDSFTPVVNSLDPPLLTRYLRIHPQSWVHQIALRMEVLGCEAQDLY

Factor IX G93S (hemophilia B-causing FIX variant)
FIX activity without the FVIIIa-mimetic: only 0.1% and 2% activity without the FVIIIa-mimetic
FIX activity, one-stage aPTT clotting assay with and without 300 nM emicizumab: I397T, E387K, R338P, and G93S all substantially increase their activity with the addition of emicizumab
